Target: 人PCSK9-D347Y (human) (UniProt Q8NBP7)
Assay: cell-based or functional assay

Row | Substance | 促LDL内吞 (HepG2细胞LDL摄取法) EC50
1 | Evolocumab (antibody) | 0.151 µg/mL
2 | JS002 (antibody) | 0.0927 µg/mL

— patent publication CN113546252A
